Test results: PMC5415106, “Dpb11 may function with RPA and DNA to initiate DNA replication”

What was measured:
[1] = biological target: T1, Dpb11 wild-type (Saccharomyces cerevisiae (budding yeast), UniProt P47027 1-764); test: EMSA; more than half bound at 40 nM; EMSA: 1 nM 32P-DNA, 20 mM Tris-HCl pH 7.5, 0.1 mM EDTA, 0.2 mM DTT, 10% glycerol, 40 mg/ml BSA (so in the source), 5 min at 30 C, 0.7% native agarose in 0.5x TBE; GST pull-down: 40 mM Tris-HCl pH 7.5, 100 mM NaCl, 0.1 mM EDTA, 10% glycerol, 0.1% Triton X-100, 1 mM DTT, 0.1 mg/ml BSA, 25 C; settings: protein: recombinant; (nickel column purification); label: 32P
T1 sequence: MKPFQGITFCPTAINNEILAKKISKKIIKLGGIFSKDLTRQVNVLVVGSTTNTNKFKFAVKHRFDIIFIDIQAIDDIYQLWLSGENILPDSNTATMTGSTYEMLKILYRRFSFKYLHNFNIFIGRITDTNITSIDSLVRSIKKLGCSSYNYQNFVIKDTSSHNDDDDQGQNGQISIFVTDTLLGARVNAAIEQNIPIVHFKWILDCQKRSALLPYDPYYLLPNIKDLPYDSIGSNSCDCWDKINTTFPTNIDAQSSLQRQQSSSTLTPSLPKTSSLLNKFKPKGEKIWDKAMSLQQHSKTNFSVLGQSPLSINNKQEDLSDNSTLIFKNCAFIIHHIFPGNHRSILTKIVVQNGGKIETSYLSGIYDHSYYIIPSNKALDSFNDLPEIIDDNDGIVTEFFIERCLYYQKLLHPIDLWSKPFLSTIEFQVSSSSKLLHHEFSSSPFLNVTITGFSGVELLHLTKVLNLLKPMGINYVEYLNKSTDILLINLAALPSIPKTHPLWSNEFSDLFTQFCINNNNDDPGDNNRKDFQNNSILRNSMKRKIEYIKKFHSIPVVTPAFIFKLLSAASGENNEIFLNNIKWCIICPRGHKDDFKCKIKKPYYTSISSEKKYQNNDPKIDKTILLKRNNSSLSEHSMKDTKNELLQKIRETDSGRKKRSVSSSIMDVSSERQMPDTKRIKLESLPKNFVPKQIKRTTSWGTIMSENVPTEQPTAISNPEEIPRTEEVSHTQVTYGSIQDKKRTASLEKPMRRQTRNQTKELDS

[2] = biological target: T1, Dpb11 wild-type; test: EMSA; nearly 80% bound at 20 nM; EMSA: 1 nM 32P-DNA, 20 mM Tris-HCl pH 7.5, 0.1 mM EDTA, 0.2 mM DTT, 10% glycerol, 40 mg/ml BSA (so in the source), 5 min at 30 C, 0.7% native agarose in 0.5x TBE; GST pull-down: 40 mM Tris-HCl pH 7.5, 100 mM NaCl, 0.1 mM EDTA, 10% glycerol, 0.1% Triton X-100, 1 mM DTT, 0.1 mg/ml BSA, 25 C; settings: protein: recombinant, (nickel column purification), label: 32P
[3] = biological target: TopBP1 full-length (Homo sapiens, UniProt Q92547 1-1522); test: EMSA; nearly 50% shifted at 20 nM; EMSA: 1 nM 32P-DNA, 20 mM Tris-HCl pH 7.5, 0.1 mM EDTA, 0.2 mM DTT, 10% glycerol, 40 mg/ml BSA (so in the source), 5 min at 30 C, 0.7% native agarose in 0.5x TBE; GST pull-down: 40 mM Tris-HCl pH 7.5, 100 mM NaCl, 0.1 mM EDTA, 10% glycerol, 0.1% Triton X-100, 1 mM DTT, 0.1 mg/ml BSA, 25 C; settings: protein: recombinant, label: 32P
Chain of TopBP1 full-length (Q92547 whole entry): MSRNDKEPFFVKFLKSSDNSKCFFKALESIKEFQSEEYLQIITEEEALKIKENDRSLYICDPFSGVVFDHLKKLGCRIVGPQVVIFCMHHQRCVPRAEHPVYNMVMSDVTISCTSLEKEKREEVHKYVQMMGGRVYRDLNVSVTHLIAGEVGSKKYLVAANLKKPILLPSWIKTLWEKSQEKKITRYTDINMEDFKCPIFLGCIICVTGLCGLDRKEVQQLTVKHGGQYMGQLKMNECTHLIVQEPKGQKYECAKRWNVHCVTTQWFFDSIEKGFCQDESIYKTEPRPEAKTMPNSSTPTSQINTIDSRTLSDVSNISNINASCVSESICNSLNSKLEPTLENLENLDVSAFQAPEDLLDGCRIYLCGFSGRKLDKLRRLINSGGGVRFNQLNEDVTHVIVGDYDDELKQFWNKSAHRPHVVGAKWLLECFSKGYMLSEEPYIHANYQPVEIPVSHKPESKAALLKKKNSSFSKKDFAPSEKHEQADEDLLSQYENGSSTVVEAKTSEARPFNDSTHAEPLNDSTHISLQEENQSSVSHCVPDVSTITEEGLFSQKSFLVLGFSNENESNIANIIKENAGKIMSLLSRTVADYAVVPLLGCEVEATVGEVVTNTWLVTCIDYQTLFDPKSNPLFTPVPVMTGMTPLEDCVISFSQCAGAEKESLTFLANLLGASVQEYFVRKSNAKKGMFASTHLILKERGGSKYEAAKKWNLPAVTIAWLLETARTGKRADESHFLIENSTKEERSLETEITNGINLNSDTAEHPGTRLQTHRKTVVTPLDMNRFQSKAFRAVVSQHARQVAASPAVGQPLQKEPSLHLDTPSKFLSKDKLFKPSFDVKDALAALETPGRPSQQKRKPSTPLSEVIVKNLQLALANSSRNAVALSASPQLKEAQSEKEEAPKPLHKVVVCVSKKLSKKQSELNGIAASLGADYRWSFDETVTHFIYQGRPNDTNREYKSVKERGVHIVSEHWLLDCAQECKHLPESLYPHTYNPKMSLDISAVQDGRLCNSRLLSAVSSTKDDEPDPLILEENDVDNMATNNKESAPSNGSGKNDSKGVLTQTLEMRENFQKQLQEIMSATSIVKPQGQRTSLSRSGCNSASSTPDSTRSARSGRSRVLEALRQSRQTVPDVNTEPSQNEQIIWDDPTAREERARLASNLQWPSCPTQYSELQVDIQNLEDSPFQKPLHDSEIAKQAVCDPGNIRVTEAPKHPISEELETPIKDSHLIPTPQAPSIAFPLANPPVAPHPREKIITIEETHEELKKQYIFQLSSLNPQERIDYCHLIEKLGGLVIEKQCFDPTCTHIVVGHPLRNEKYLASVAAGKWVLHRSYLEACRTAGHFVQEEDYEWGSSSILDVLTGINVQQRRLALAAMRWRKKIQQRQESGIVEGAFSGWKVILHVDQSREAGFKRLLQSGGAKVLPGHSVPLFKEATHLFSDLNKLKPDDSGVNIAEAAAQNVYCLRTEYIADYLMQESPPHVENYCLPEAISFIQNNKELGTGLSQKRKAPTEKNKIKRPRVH

[4] = biological target: T1, Dpb11 wild-type; test: EMSA; 80 nM required to bind more than half; EMSA: 1 nM 32P-DNA, 20 mM Tris-HCl pH 7.5, 0.1 mM EDTA, 0.2 mM DTT, 10% glycerol, 40 mg/ml BSA (so in the source), 5 min at 30 C, 0.7% native agarose in 0.5x TBE; GST pull-down: 40 mM Tris-HCl pH 7.5, 100 mM NaCl, 0.1 mM EDTA, 10% glycerol, 0.1% Triton X-100, 1 mM DTT, 0.1 mg/ml BSA, 25 C; settings: protein: recombinant, (nickel column purification), label: 32P
[5] = biological target: T1, Dpb11 wild-type; test: EMSA; 320 nM required to bind more than half; EMSA: 1 nM 32P-DNA, 20 mM Tris-HCl pH 7.5, 0.1 mM EDTA, 0.2 mM DTT, 10% glycerol, 40 mg/ml BSA (so in the source), 5 min at 30 C, 0.7% native agarose in 0.5x TBE; GST pull-down: 40 mM Tris-HCl pH 7.5, 100 mM NaCl, 0.1 mM EDTA, 10% glycerol, 0.1% Triton X-100, 1 mM DTT, 0.1 mg/ml BSA, 25 C; settings: protein: recombinant; (nickel column purification); label: 32P; blunt
[6] = fork 1:2, 31 bp duplex with two T80 arms
[7] = bubble: 31 bp and 22 bp duplexes flanking T80/T80 loop

B1: ssDNA (dT80) (ssDNA)
DNA: TTTTTTTTTTTTTTTTTTTTTTTTTTTTTTTTTTTTTTTTTTTTTTTTTTTTTTTTTTTTTTTTTTTTTTTTTTTTTTTT
apparent K (half saturation) [1]: < 40 nM

B2: fork DNA (structured_DNA)
DNA 1: ATGTCCTAGCAAGCCAGAATTCGGCAGCGTCTTTTTTTTTTTTTTTTTTTTTTTTTTTTTTTTTTTTTTTTTTTTTTTTTTTTTTTTTTTTTTTTTTTTTTTTTTTTTTTT
DNA 2: TTTTTTTTTTTTTTTTTTTTTTTTTTTTTTTTTTTTTTTTTTTTTTTTTTTTTTTTTTTTTTTTTTTTTTTTTTTTTTTTGACGCTGCCGAATTCTGGCTTGCTAGGACAT
apparent K (half saturation) [2, 6]: < 20 nM
apparent K (half saturation) [3, 6]: ~20 nM

B3: 5'-tailed DNA (mixed)
DNA 1: ATGTCCTAGCAAGCCAGAATTCGGCAGCGTC
DNA 2: B2 DNA 2
apparent K (half saturation) ([4]; 5' overhang 80 nt (T)): ~80 nM
apparent K (half saturation) ([3]; 5' overhang 80 nt (T)): ~20 nM

B4: 3'-tailed DNA (mixed)
DNA 1: GACGCTGCCGAATTCTGGCTTGCTAGGACAT
DNA 2: B2 DNA 1
apparent K (half saturation) ([4]; 3' overhang 80 nt (T)): ~80 nM
apparent K (half saturation) ([3]; 3' overhang 80 nt (T)): ~20 nM

B5: blunt dsDNA (dsDNA)
DNA 1: B3 DNA 1
DNA 2: B4 DNA 1
apparent K (half saturation) [5]: ~320 nM

B6: bubble DNA (structured_DNA)
DNA 1: ATGTCCTAGCAAGCCAGAATTCGGCAGCGTCTTTTTTTTTTTTTTTTTTTTTTTTTTTTTTTTTTTTTTTTTTTTTTTTTTTTTTTTTTTTTTTTTTTTTTTTTTTTTTTTCCACGTCGGCGTCGCCACGAGC
DNA 2: GCTCGTGGCGACGCCGACGTGGTTTTTTTTTTTTTTTTTTTTTTTTTTTTTTTTTTTTTTTTTTTTTTTTTTTTTTTTTTTTTTTTTTTTTTTTTTTTTTTTGACGCTGCCGAATTCTGGCTTGCTAGGACAT
apparent K (half saturation) [2, 7]: < 20 nM
apparent K (half saturation) [3, 7]: ~20 nM
